# According to patent US20240262910A1 (Memorial Sloan Kettering, published 2024):
# T1: mouse CD33 extracellular domain with 6xHis-tag (mouse, UniProt Q63994 18-240)
# T1 construct: range 18-240; also called moCD33-His; moCD33(ECD)-His
# T1 sequence: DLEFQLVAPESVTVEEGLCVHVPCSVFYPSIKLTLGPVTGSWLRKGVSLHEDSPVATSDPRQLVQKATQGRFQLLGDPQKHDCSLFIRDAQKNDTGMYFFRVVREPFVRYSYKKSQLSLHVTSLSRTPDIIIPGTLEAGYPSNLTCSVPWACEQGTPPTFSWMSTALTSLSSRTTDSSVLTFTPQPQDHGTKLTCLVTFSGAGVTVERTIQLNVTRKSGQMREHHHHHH
# How the values were obtained:
# [1] = biological target: T2, human CD33, full length, on cells (human, UniProt P20138 18-364); assay: flow cytometry, U937 cells
# T2 construct: NIH-3T3 cells stably overexpressing full-length human CD33, or AML lines U937 and Set2 with endogenous CD33; the cell line is named under assay; also called 3T3-huCD33; 3T3-CD33
# Method: (§1) Binding to CD33 on Cells. To assess the binding of TDI-Y-006, TDI-Y-007 and 1J19 to cell surface-bound CD33, 3T3 cells overexpressing CD33, as well as the U937 AML cell line, which expresses endogenous CD33, were used. U937 CD33KO or NALM6 were included as negative controls. Briefly, NALM6, U937 CD33+ and KO cells were blocked with human IgG Fc for 20 minutes on ice. The recombinant antibodies were then serially diluted starting at 100 μg/mL concentration and added for 30 minutes on ice. AlexaFluor 647-conjugated goat anti-human F(ab′)2 was added to cells for 30 minutes on ice, washed and analyzed by flow cytometry, normalized to secondary only staining (MFI ratio). EC50 values were determined by non-linear regression.
# [2] = biological target: T3, human CD33 extracellular domain with 6xHis-tag (human, UniProt P20138 18-259); assay: BLI, huCD33-His on anti-penta-His sensor, no competitor
# T3 construct: Bought (R&D Systems, Acro Biosystems); also called huCD33-His; huCD33(ECD)-His
# Method: Epitope Binning. Epitope binning was carried out by a BLI competition experiment using an Octet Red96e. Human CD33-His was captured by an anti-penta-His biosensor. A 4×4 matrix with TDI-Y-006, TDI-Y-007, 1J19 and H195 was tested. A reference biosensor was used to determine the overall capture level for each antibody. After pre-binding the antibodies at saturation levels, the biosensors were dipped into antibody solutions to assess competition. […] However, when TDI-Y-006 was pre-bound, binding of TDI-Y-007 was blocked. […] Similarly, 1J19 and H195 have epitopes that partially overlap. No competition was observed between antibodies binding to the membrane-proximal IgC2 domain (TDI-Y-006 and TDI-Y-007) and antibodies binding to the membrane-distal IgV domain (1J19 and H195).
# [3] = biological target: T2, human CD33, full length, on cells; assay: flow cytometry, 3T3-CD33 cells
# Method: as §1
# [4] = biological target: T3, human CD33 extracellular domain with …; assay: BLI (Octet Red96e), antibody on anti-huFc sensor, huCD33-His as analyte, 1:1 fit
# Method: The binding affinity to human CD33 protein was measured by biolayer interferometry (BLI) using an Octet Red96e. All experiments were carried out using kinetic buffer (PBS pH 7.4, 0.01% BSA, 0.002% Tween-20). The antibodies were captured by an anti-huFc biosensor and a 7-point, 2-fold dilution series of huCD33-His was used as analyte. The data was processed by double reference subtraction, and response curves were globally fit to a 1:1 Langmuir binding model. […] The binding affinities are similar to the H195 reference antibody.
# [5] = biological target: T2, human CD33, full length, on cells; assay: flow cytometry on 3T3 cells overexpressing human CD33, antibody titration, AlexaFluor 647 goat anti-human F(ab')2 detection, MFI ratio to secondary only
# Method: as §1
# [6] = biological target: T3, human CD33 extracellular domain with …; assay: ELISA, hybridoma supernatant
# [7] = biological target: T4, human CD33 IgC2 type domain with 6xHis-tag (human, UniProt P20138 140-259); assay: ELISA, hybridoma supernatant
# T4 construct: Produced at LakePharma; also called huCD33IgC2-His; CD33 IgC2-6xHis
# [8] = biological target: T2, human CD33, full length, on cells; assay: flow cytometry, hybridoma supernatant, 3T3-huCD33 cells
# [9] = biological target: T5, human CD33 IgC2 domain only, on NIH-3T3 cells (human, UniProt P20138 140-364); assay: flow cytometry, hybridoma supernatant, 3T3-huCD33IgC2 cells, MFI
# T5 construct: the whole entry is named here; also called 3T3-huCD33IgC2; 3T3 CD33-IgC2
# [10] = biological target: T2, human CD33, full length, on cells; assay: flow cytometry, hybridoma supernatant, U937 cells
# [11] = biological target: T2, human CD33, full length, on cells; assay: flow cytometry, purified mAb, Set2 cells
# [12] = biological target: T2, human CD33, full length, on cells; assay: flow cytometry, purified mAb, U937 cells
# [13] = biological target: T1, mouse CD33 extracellular domain with …; assay: ELISA on recombinant moCD33-His, purified hybridoma subclone antibody, readout RLU; antibody concentration not given
# [14] = biological target: T4, human CD33 IgC2 type domain with …; assay: ELISA, hybridoma supernatant, RLU
# [15] = biological target: T5, human CD33 IgC2 domain only, on NIH-3T3 …; assay: flow cytometry, hybridoma supernatant, 3T3-huCD33IgC2 cells
# T2 sequence (P20138 18-364): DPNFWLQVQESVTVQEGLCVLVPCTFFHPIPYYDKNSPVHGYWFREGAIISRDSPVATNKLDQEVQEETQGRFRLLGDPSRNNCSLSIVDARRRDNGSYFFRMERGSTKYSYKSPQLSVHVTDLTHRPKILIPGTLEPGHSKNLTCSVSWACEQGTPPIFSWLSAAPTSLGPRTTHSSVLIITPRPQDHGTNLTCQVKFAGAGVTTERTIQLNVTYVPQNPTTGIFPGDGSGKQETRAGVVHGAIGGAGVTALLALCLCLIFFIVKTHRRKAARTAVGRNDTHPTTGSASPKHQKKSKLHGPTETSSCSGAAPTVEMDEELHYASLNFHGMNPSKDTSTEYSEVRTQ
# T3 sequence (P20138 other isoform, or with tags, fused parts or gaps): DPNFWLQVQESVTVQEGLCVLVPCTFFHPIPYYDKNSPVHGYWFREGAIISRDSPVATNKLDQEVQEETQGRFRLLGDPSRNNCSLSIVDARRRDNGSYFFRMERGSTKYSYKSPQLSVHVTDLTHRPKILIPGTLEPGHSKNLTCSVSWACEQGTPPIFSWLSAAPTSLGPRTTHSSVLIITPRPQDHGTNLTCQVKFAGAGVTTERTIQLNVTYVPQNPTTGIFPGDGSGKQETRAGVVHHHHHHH
# T4 sequence (P20138 other isoform, or with tags, fused parts or gaps): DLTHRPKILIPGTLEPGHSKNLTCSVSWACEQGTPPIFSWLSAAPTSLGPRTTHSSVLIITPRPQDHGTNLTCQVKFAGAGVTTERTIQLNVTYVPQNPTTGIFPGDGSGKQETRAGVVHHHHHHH
# T5 sequence (P20138 140-364 limits assumed): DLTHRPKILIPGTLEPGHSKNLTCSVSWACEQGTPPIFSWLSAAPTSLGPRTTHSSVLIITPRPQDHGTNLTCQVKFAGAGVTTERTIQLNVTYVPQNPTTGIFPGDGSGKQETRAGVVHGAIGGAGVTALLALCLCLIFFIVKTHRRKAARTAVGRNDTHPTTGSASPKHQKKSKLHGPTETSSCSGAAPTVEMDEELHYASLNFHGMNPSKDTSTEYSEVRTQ
EC50 [1],BLI total binding capacity (Reference Biosensor) [2],EC50 [3],Kd [4],kon [4],EC50 (read off the curve) [5],RLU [6],RLU [7],MFI [8],MFI [10],EC50 [11],EC50 [12],binding result [13],binding result [14],MFI [15],Binder,binding result [9]
2.16 nM,0.432,6.54 nM,1.1 nM,266000 M⁻¹ s⁻¹,~4 nM,–,–,–,–,–,–,–,–,–,"1J19 (recombinant, human IgG1 constant region) (antibody, V domains shown) VH: QVQLQQSGPGLVKPSQTLSLTCAISGDSVSSNSAAWNWIRQSPSRGLEWLGRTYFRSKWYNVYAVSVKSRITINPDTSKNQFSLQLNSVTPEDTAVYYCASEGGSYYDHWGQGTLVTVSS VL: DIQMTQSPSSVSASVGDRVTITCRASQGISNWLTWYQQKPGKAPKLLIYAASSLQSGVPSRFSGSGSGTDFTLTISSLQPEDFATYYCQQADSFPFTFGPGTKVDIK",–
–,–,–,–,–,–,95600 RLU,15200 RLU,3.86e+06 MFI,339000 MFI,7.93 nM,10.2 nM,–,–,–,"1-J19 (hybridoma antibody) (antibody, V domains shown, AlivaMab mouse hybridoma antibody; also called 1-J19-A) VH: QVQLQQSGPGLVKPSQTLSLTCAISGDSVSSNSAAWNWIRQSPSRGLEWLGRTYFRSKWYNVYAVSVKSRITINPDTSKNQFSLQLNSVTPEDTAVYYCASEGGSYYDHWGQGTLVTVSS VL: DIQMTQSPSSVSASVGDRVTITCRASQGISNWLTWYQQKPGKAPKLLIYAASSLQSGVPSRFSGSGSGTDFTLTISSLQPEDFATYYCQQADSFPFTFGPGTKVDIK","no binding (tested: A signal >100,000 was used as cut off)"
–,–,–,–,–,–,724000 RLU,–,4.21e+06 MFI,409000 MFI,0.466 nM,0.4 nM,no binding,no binding,–,"2-N3 (antibody, V domains shown, AlivaMab mouse hybridoma antibody; also called 2-N3-A) VH: EVQLVQSGADVKKPGESLKISCKGSGFSFTSHWIAWVRQMPGKGLEWMGIIYPGDSDTRYSPSLQGRVTISADKSISTAYLQWSSLKASDTAMYFCARHETGNGYSYGMDVWGQGTTVTVSS VL: DIVMTQSPLSLPVTPGEPASISCRSSQSLLHSNGYNYLDWYLQKPGQSPQLLFSLGSNRASGVPDRFSGSGSGTDFSLKISRVEAEDVGLYYCMQALQPPLTFGGGTKVEIK","no binding (tested: A signal >100,000 was used as cut off)"
0.4 nM,0.743,4.8 nM,1.22 nM,358000 M⁻¹ s⁻¹,–,–,–,–,–,–,–,–,–,–,"H195 (lintuzumab) (antibody, V domains shown) VH: QVQLVQSGAEVKKPGSSVKVSCKASGYTFTDYNMHWVRQAPGQGLEWIGYIYPYNGGTGYNQKFKSKATITADESTNTAYMELSSLRSEDTAVYYCARGRPAMDYWGQGTLVTVSS VL: DIQMTQSPSSLSASVGDRVTITCRASESVDNYGISFMNWFQQKPGKAPKLLIYAASNQGSGVPSRFSGSGSGTDFTLTISSLQPDDFATYYCQQSKEVPWTFGQGTKVEIK",–
–,–,–,–,–,–,117000 RLU,–,1.98e+06 MFI,558000 MFI,0.4 nM,0.6 nM,no binding,no binding,–,"1-A20 (antibody, V domains shown, AlivaMab mouse hybridoma antibody; also called 1-A20-A) VH: QVQLQESGPGLVKPSETLSLTCTVSGDSISSYYWSWIRQPAGKGLEWIGRIYTSGNTNYNPSLKSRVTMSVDKSKNQFSLKLRSVTAADTAVYYCARDGDNRDSDAFDIWGQGTMVTVSS VL: SPGTLSLSPGERATLSCRASQNISSSYLAWCQQKPGQAPRLFIYGTSRRATGIPDRFSGSGSGTDFTLTISRLEPEDFAVYYCQQYGSSPLTFGGGTKVEIK","no binding (tested: A signal >100,000 was used as cut off)"
–,–,–,–,–,–,132000 RLU,58900 RLU,1.75e+06 MFI,479000 MFI,0.4 nM,0.866 nM,no binding,–,–,"1-H19 (antibody, V domains shown, AlivaMab mouse hybridoma antibody; also called 1-H19-A) VH: QVQLQESGPGLVKPSETLSLTCTVSGGSISTYYWSWIRQPAGKGLEWIGRIYTSGNTNYNPSLKSRVTMSVDTSKNQLSLKLRSVTAADTAVYYCARDGDNRNSDAFDIWGQGTMVTVSS VL: QSVLTQPPSVSGAPGQRVTISCTGSSSNIGAGYDVHWYQQLPGTAPKLLIYGNSNRPSGVPDRFSGSKSGTSASLAITGLQAEDEADYYCQSYDRSLSGWVFGGGTKLTVL",–
–,–,–,–,–,–,41800 RLU,–,4.08e+06 MFI,456000 MFI,1.4 nM,1.07 nM,no binding,no binding,–,"1-P23 (antibody, V domains shown, AlivaMab mouse hybridoma antibody; also called 1-P23-A) VH: QVQLVESGGGVVQPGRSLRLSCAASGFTFNSYGMHWVRQAPGKGLEWVAIISYDGSNKYYADSVKGRFTISRDNSKNTLYLQMNSLRAEDTAVYYCARDNYDSSGYNWYFDLWGRGTLVTVSS VL: SSELTQDPAVSVALGQTVRITCQGDSLRSYYASWYQQKPGQAPVLVIYGKNNRPSGIPDRFSGSSSGNTASLTITGAQAEDEADYYCNSRDSSGNLWVFGGGTKLTVL","no binding (tested: A signal >100,000 was used as cut off)"
–,–,–,–,–,–,251000 RLU,20400 RLU,3.56e+06 MFI,351000 MFI,24.2 nM,11.9 nM,no binding,–,–,"2-F18 (antibody, V domains shown, AlivaMab mouse hybridoma antibody; also called 2-F18-A) VH: QIQLVESGGGVVQPGRSLRLSCAASGFTFSAYPMHWVRQAPGKGLEWVAIISYDGSNNYYADSVKGRFTISRDNSKNTMYLQINSLRAEDTGVYYCARGKVGTLDFWGQGTLVTVSS VL: not shown",–
–,–,–,–,–,–,484000 RLU,–,1.32e+06 MFI,188000 MFI,2 nM,2.5 nM,no binding,–,391000 MFI,"4-P3 (antibody, V domains shown, AlivaMab mouse hybridoma antibody; also called 4-P3-A) VH: EVQLLESGGGLVQPGGSLRLSCAASGFTFSTYAMSWVRQAPGKGLEWVSAISGRGGSTYYTDSVKGRFTISRDNSKNTVSLQMNSLRAEDTAVYYCAGRGDYYYYYGMDVWGQGTTVTVSA VL: DIVMTQSPLSSPVTLGQPASISCRSSQSLVYSDGNTYLSWLQQRPGQPPRLLIYKISNRFSGVPDRFSGSGAGTDFTLKISRVEAEDVGVYYCMQSTQFPHTFGQGTKLEIK",–
–,–,–,–,–,–,117000 RLU,–,2.15e+06 MFI,559000 MFI,5 nM,6.33 nM,no binding,no binding,–,"1-P13 (antibody, V domains shown, AlivaMab mouse hybridoma antibody; also called 1-P13-A) VH: not shown VL: DVVMTQSPLSLPVSLGQPASISCRSSRGLVYSDVNTNLNWFQQRPGQSPRRLIYKVSNRDSGVPDRFSGSGSGTDFTLKISRVEAEDVGVYYCMQGTHWPWTFGQGTKVEIK",–
